Experimental data as given in PMC314469, “Protein Interaction Networks by Proteome Peptide Scanning” (PLoS Biology, 2004).

T1: Yhr016c SH3 (YSC84_YEAST), P32793
T1 chain: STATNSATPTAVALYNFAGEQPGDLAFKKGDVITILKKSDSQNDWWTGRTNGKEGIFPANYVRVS

T2: Rvs167 SH3 (RV167_YEAST), P39743
T2 chain: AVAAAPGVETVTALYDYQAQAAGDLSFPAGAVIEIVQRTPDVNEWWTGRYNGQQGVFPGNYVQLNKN

T3: Yfr024 SH3 (LSB3_YEAST), P43603
T3 chain: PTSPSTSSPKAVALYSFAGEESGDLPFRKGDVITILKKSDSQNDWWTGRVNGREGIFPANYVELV

T4: Boi1 SH3 (BOI1_YEAST), P38041
T4 chain: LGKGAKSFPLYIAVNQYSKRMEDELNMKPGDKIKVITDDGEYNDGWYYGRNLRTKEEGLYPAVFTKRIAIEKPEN

T5: Boi2 SH3 (BOI2_YEAST), P39969
T5 chain: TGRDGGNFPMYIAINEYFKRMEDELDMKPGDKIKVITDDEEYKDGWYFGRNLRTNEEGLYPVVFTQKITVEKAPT


What was measured:
Experiment in all cases: SPOT array
[1] = biological target: T1, Yhr016c SH3 (YSC84_YEAST), P32793
[2] = biological target: T2, Rvs167 SH3 (RV167_YEAST), P39743
[3] = biological target: T3, Yfr024 SH3 (LSB3_YEAST), P43603
[4] = biological target: T4, Boi1 SH3 (BOI1_YEAST), P38041
[5] = biological target: T5, Boi2 SH3 (BOI2_YEAST), P39969

| Binder | normalised SPOT signal, Boehringer light units (BLU); mean over the file's lines of this peptide [1] | normalised SPOT signal, Boehringer light units (BLU); mean over the file's lines of this peptide [2] | normalised SPOT signal, Boehringer light units (BLU); mean over the file's lines of this peptide [3] | normalised SPOT signal, Boehringer light units (BLU); mean over the file's lines of this peptide [4] | normalised SPOT signal, Boehringer light units (BLU); mean over the file's lines of this peptide [5] |
| --- | --- | --- | --- | --- | --- |
| RAVPILPPRNNVEP [YBR108W 543-556] | 33600 | 59500 | 38300 | 49.7 | 77 |
| RAPPPVPKKPSSRI [YIR003W 387-400] | 501 | 29.1 | 28900 | 129 | 42 |
| QYYPEEPTKPTVKT [YGR019W 6-19] | 85.8 | 6.4 | 49.9 | 55.2 | 37.2 |
| QRHPKSPVKKPMTS [YCL014W 878-891] | 169 | 192 | 676 | 123 | 90.5 |
| QTSPGQPRKGQNGS [YFR028C 427-440] | 177 | 64 | 118 | 157 | 22.6 |
| QSNPTSPTKQTFTI [YBL085W 600-613] | 182 | 60.4 | 148 | 62.2 | 65.7 |
| QSQPPRPPRPAANL [YGR268C 24-37] | 11000 | 105 | 27400 | 577 | 16 |
| QRQPKRPKRYSLLL [YJR147W 216-229] | 613 | 104 | 5420 | 117 | 194 |
| QYIPPPPPKYINSK [YDR207C 482-495] | 81.6 | 112 | 393 | 122 | 45.9 |
| QSTPTPPAKRLFLI [YKL165C 41-54] | 146 | 35.4 | 1420 | 56.9 | 48.8 |
| RDKPSEPERTKDGS [YJL184W 49-62] | 120 | 24.1 | 112 | 74.9 | 27.8 |

Next, values leading:

| normalised SPOT signal, Boehringer light units (BLU); mean over the file's lines of this peptide [1] | normalised SPOT signal, Boehringer light units (BLU); mean over the file's lines of this peptide [2] | normalised SPOT signal, Boehringer light units (BLU); mean over the file's lines of this peptide [3] | normalised SPOT signal, Boehringer light units (BLU); mean over the file's lines of this peptide [4] | normalised SPOT signal, Boehringer light units (BLU); mean over the file's lines of this peptide [5] | Binder |
| --- | --- | --- | --- | --- | --- |
| 117 | 23.7 | 0 | 11.9 | 22.9 | QVPPKSPEKSGWLY [YNL257C 304-317] |
| 1090 | 117 | 2360 | 147 | 92.9 | RSSPWSPSRSHGAV [YLR169W 91-104] |
| 408 | 906 | 1890 | 33500 | 3450 | QSPPRSPGRSPTRR [YLR086W 108-121] |
| 880 | 1080 | 7220 | 55 | 14.7 | RGIPARPSKDDVMK [YPL073C 83-96] |
| 846 | 116 | 3040 | 66.6 | 38.4 | RFNPAIPLRIYLKT [YLR073C 15-28] |
| 263 | 33.9 | 117 | 42.7 | 35.1 | QTYPAQPPKIGNAF [YMR016C 219-232] |
| 33400 | 18300 | 25900 | 3000 | 14.3 | RGPPPLPPRANVQP [YLR144C 22-35] |
| 122 | 45.9 | 257 | 143 | 27.2 | QQLPLEPLKPTATG [YOR329C 404-417] |
| 71.9 | 40 | 321 | 129 | 62 | RFDPKSPTKRSIAI [YMR129W 524-537] |
| 50200 | 11800 | 49100 | 2310 | 65.9 | REEPPLPKRIRISK [YKL214C 57-70] |
| 118 | 2.1 | 61.7 | 103 | 14 | QRLPGEPGREQAPN [YOR322C 391-404] |
